Reference: the RNAGym collection of RNA variant scans (doi:10.1021/acssynbio.7b00057)

B1: Pistol ribozyme (parent)
chain: GGGUCGUUGUUCCAUAAUCGCGUGGAUAUGGCACGCAAGUUUCUACCGGGCACCGUAAAUGUCCGACUGGAGCCGUUCGGGCGGCUAUAAACAGACCUCAGGCCCGAAGCGUGGCGGCACCUGCCGCCGGUGGUAAAAAAGAUCGGAAGAGCACACGUCU

Variants of: B1
Test: aptazyme ON/OFF ratio, guanine; higher = stronger switching; co-transcriptional cleavage with and without guanine

| Variant | aptazyme ON/OFF ratio |
| --- | --- |
| U8G G9C U10G C12A C13G | 1.09 |
| U8G G9C U10G C12A C13A | 1.11 |
| U8G G9C U10G C12A C13U | 1.15 |
| U8G G9C U10G U11C C12G | 1.03 |
| U8G G9C U10G U11C C12A | 1.05 |
| U8G G9C U10G U11C C12U | 1.03 |
| U8G G9C U10G U11G C12A C13U | 1.3 |
| U8G G9C U10G U11G C12A C13G | 1.15 |
| U8G G9C U10G U11G C12A C13A | 1.18 |
| U8G G9U C13U | 1.41 |
| U8G G9U C13G | 1.1 |
| U8G G9U C13A | 1.39 |
| U8G G9C U10A U11G C13G | 1.04 |
| U8G G9C U10A U11G C13A | 1.08 |
| U8G G9C U10A U11G C13U | 1.05 |
| U8G G9C U10G C12A | 1.19 |
| U8G G9C U10G C12G | 1.19 |
| U8G G9C U10G C12U | 1.06 |
| U8G G9C U11A C12U C13G | 1.06 |
| U8G G9C U11A C12U C13A | 1.03 |
| U8G G9C U11A C12U C13U | 1.1 |
| U8G G9U U10C U11C C12G | 1.02 |
| U8G G9U U10C U11C C12U | 1.03 |
| U8G G9U U10C U11C C12A | 1.04 |

| Variant | aptazyme ON/OFF ratio |
| --- | --- |
| U8G G9C U10G C13U | 1.24 |
| U8G G9C U10G C13G | 1.12 |
| U8G G9C U10G C13A | 1.27 |
| U8G G9C U10A U11G C12G C13A | 1.35 |
| U8G G9C U10A U11G C12G C13U | 1.22 |
| U8G G9C U10A U11G C12G C13G | 1.31 |
| U8G G9C U11G C13G | 1.04 |
| U8G G9C U11G C13U | 1.06 |
| U8G G9C U11G C13A | 1.05 |
| U8G G9C U10G U11A C12U | 1.07 |
| U8G G9C U10G U11A C12G | 1.15 |
| U8G G9C U10G U11A C12A | 1.17 |
| U8G G9C U10C C13A | 1.03 |
| U8G G9C U10C C13U | 1.07 |
| U8G G9C U10C C13G | 1.04 |
| U8G G9C U10C U11G C12G C13G | 1.11 |
| U8G G9C U10C U11G C12G C13U | 1.08 |
| U8G G9C U10C U11G C12G C13A | 1.08 |
| U8G G9C U10A U11C C12U C13U | 1.02 |
| U8G G9C U10A U11C C12U C13G | 1.06 |
| U8G G9C U10A U11C C12U C13A | 1.09 |
| U8G G9U U10A C12A C13U | 1.25 |
| U8G G9U U10A C12A C13G | 1.18 |
| U8G G9U U10A C12A C13A | 1.21 |

| Variant | aptazyme ON/OFF ratio |
| --- | --- |
| U8G G9C U10C U11C C12G C13U | 1.08 |
| U8G G9C U10C U11C C12G C13G | 1.09 |
| U8G G9C U10C U11C C12G C13A | 1.11 |
| U8G G9U U10C U11A C13A | 1.06 |
| U8G G9U U10C U11A C13U | 1.12 |
| U8G G9U U10C U11A C13G | 1.04 |
| U8G G9C U10A U11G C12A | 1.07 |
| U8G G9C U10A U11G C12G | 1.19 |
| U8G G9C U10A U11G C12U | 1.2 |
| U8G G9C U11C C12G C13G | 1.05 |
| U8G G9C U11C C12G C13A | 1.03 |
| U8G G9C U11C C12G C13U | 1.04 |
| U8G G9C U11C C12A C13A | 1.04 |
| U8G G9C U11C C12A C13U | 1.04 |
| U8G G9C U11C C12A C13G | 1.04 |
| U8G G9C U10C U11G | 1.27 |
| U8G G9C U10C U11C | 1.04 |
| U8G G9C U10C U11A | 1.07 |
| U8G G9U U10A C12U C13G | 1.19 |
| U8G G9U U10A C12U C13A | 1.2 |
| U8G G9U U10A C12U C13U | 1.17 |
| U8G G9C U10A U11A C13G | 1.04 |
| U8G G9C U10A U11A C13U | 1.15 |
| U8G G9C U10C U11C C12A | 1.05 |

| Variant | aptazyme ON/OFF ratio |
| --- | --- |
| U8G G9C U10C U11C C12G | 1.06 |
| U8G G9C U10C U11C C12U | 1.06 |
| U8G G9U U10A U11A C12G C13A | 1.2 |
| U8G G9U U10A U11A C12G C13U | 1.22 |
| U8G G9U U10A U11A C12G C13G | 1.18 |
| U8G G9C U10C U11C C12A C13G | 1.06 |
| U8G G9C U10C U11C C12A C13U | 1.07 |
| U8G G9C U10C U11C C12A C13A | 1.02 |
| U8G G9C U10G U11G | 1.2 |
| U8G G9C U10G U11C | 1.03 |
| U8G G9C U10G U11A | 1.07 |
| U8G G9C U10C U11C C13G | 1.01 |
| U8G G9C U10C U11C C13U | 1.03 |
| U8G G9C U10C U11C C13A | 1.06 |
| U8G G9U U10C U11A C12G C13A | 1.08 |
| U8G G9U U10C U11A C12G C13U | 1.16 |
| U8G G9U U10C U11A C12G C13G | 1.14 |
| U8G G9U U10A U11C C12A C13U | 1.16 |
| U8G G9U U10A U11C C12A C13G | 1.1 |
| U8G G9U U10A U11C C12A C13A | 1.1 |
| U8G G9C U10A U11C C12U | 1.04 |
| U8G G9C U10A U11C C12G | 1.14 |
| U8G G9C U10A U11C C12A | 1.12 |
| U8G G9U U10C U11A C12A C13G | 1.08 |

| Variant | aptazyme ON/OFF ratio |
| --- | --- |
| U8G G9U U10C U11A C12A C13U | 1.09 |
| U8G G9U U10C U11A C12A C13A | 1.07 |
| U8G G9U U10A | 1.2 |
| U8G G9U U10C | 1.51 |
| U8G G9C U11G C12A | 1.11 |
| U8G G9C U11G C12G | 1.15 |
| U8G G9C U11G C12U | 1.22 |
| U8G G9U U10A U11C C13G | 1.03 |
| U8G G9U U10A U11C C13U | 1.01 |
| U8G G9U U10A U11C C13A | 1.02 |
| U8G G9C U10G C12U C13U | 1.26 |
| U8G G9C U10G C12U C13A | 1.08 |
| U8G G9C U10G C12U C13G | 1.11 |
| U8G G9C U10C U11A C12G C13G | 1.1 |
| U8G G9C U10C U11A C12G C13U | 1.11 |
| U8G G9C U10C U11A C12G C13A | 1.02 |
| U8G G9C U11C C12G | 1.04 |
| U8G G9C U11C C12U | 1.04 |
| U8G G9C U11C C12A | 1.05 |
| U8G G9C U10A U11C | 1.03 |
| U8G G9C U10A U11G | 1.18 |
| U8G G9U U10C U11C C12U C13G | 1.02 |
| U8G G9U U10C U11C C12U C13A | 1.02 |
| U8G G9C U10A U11C C13G | 1.04 |

| Variant | aptazyme ON/OFF ratio |
| --- | --- |
| U8G G9C U10A U11C C13A | 1.04 |
| U8G G9C U10A U11C C13U | 1.03 |
| U8G G9U U10A U11G C12U C13A | 1.05 |
| U8G G9U U10A U11G C12U C13G | 1.1 |
| U8G G9U U10A U11G C12U C13U | 1.13 |
| U8G G9C U10A U11G C12U C13U | 1.17 |
| U8G G9C U10A U11G C12U C13G | 1.1 |
| U8G G9C U10A U11G C12U C13A | 1.06 |
| U8G G9C U11G | 1.14 |
| U8G G9C U11C | 1.03 |
| U8G G9C U11A | 1.13 |
| U8G G9U U10A U11A C12G | 1.14 |
| U8G G9U U10A U11A C12A | 1.34 |
| U8G G9U U10A U11A C12U | 1.19 |
| U8G G9C U10G U11G C12G C13U | 1.3 |
| U8G G9C U10G U11G C12G C13A | 1.24 |
| U8G G9C U10G U11G C12G C13G | 1.1 |
| U8G G9U U10C U11A C12U | 1.11 |
| U8G G9U U10C U11A C12G | 1.12 |
| U8G G9U U10C U11A C12A | 1.14 |
| U8G G9U U10A U11A C12A C13G | 1.16 |
| U8G G9U U10A U11A C12A C13A | 1.15 |
| U8G G9U U10A U11A C12A C13U | 1.22 |
| U8G G9U U10A U11C C12G C13A | 1.08 |

| Variant | aptazyme ON/OFF ratio |
| --- | --- |
| U8G G9U U10A U11C C12G C13U | 1.11 |
| U8G G9U U10A U11C C12G C13G | 1.11 |
| U8G G9C U10G U11A C12A C13U | 1.11 |
| U8G G9C U10G U11A C12A C13A | 1.12 |
| U8G G9C U10G U11A C12A C13G | 1.11 |
| U8G G9C U11A C13U | 1.05 |
| U8G G9C U11A C13G | 1.03 |
| U8G G9C U11A C13A | 1.04 |
| U8G G9C U10G U11C C12A C13A | 1.04 |
| U8G G9C U10G U11C C12A C13U | 1.03 |
| U8G G9C U10G U11C C12A C13G | 1.04 |
| U8G G9C U10C U11G C12U C13G | 1.1 |
| U8G G9C U10C U11G C12U C13U | 1.07 |
| U8G G9C U10C U11G C12U C13A | 1.04 |
| U8G G9U U10C C12A C13A | 1.2 |
| U8G G9U U10C C12A C13U | 1.15 |
| U8G G9U U10C C12A C13G | 1.15 |
| U8G G9C U10C C12U | 1.03 |
| U8G G9C U10C C12A | 1.05 |
| U8G G9C U10C C12G | 1.08 |
| U8G G9C U10C U11A C12A C13A | 1.06 |
| U8G G9C U10C U11A C12A C13G | 1.07 |
| U8G G9C U10C U11A C12A C13U | 1.05 |
